*1 amine or outer side, *2 acyl side, *3 side chain or, on linkers, in order; H or OH if unused. Side-chain parts run from the residue outwards. The star is where a group is joined. C18 diacid = O=C(O)CCCCCCCCCCCCCCCCC(=O)*; γGlu = O=C(O)[C@H](CCC(=O)[*:2])N[*:1]; Isovaleryl = CC(C)CC(=O)*; Ahx = NCCCCCC(=O)O
T1: human NPY2 receptor (human, UniProt P49146 1-381)
T1 sequence (looked up): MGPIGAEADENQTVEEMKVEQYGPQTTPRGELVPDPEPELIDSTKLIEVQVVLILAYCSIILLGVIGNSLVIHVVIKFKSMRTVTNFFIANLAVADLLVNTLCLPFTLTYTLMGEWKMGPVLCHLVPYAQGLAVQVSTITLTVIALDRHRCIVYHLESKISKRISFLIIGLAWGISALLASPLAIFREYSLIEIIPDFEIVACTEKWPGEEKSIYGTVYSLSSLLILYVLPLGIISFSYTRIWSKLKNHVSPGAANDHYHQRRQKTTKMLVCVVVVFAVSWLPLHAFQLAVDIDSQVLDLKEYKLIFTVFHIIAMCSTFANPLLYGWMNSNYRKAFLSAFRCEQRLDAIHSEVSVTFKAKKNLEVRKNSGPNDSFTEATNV

T2: human NPY1 receptor (human, UniProt P25929 1-384)
T2 sequence (looked up): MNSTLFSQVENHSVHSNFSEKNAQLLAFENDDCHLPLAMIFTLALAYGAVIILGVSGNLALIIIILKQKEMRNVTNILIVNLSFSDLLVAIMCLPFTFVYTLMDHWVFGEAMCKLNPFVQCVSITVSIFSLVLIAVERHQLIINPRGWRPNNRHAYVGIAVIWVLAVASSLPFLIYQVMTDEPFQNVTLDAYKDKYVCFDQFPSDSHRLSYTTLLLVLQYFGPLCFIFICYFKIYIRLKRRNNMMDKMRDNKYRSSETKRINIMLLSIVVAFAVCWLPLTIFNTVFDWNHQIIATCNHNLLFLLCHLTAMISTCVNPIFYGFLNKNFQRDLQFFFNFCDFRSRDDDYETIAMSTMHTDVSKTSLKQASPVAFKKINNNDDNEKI

T3: human NPY5 receptor (human, UniProt Q15761 1-445)
T3 sequence (looked up): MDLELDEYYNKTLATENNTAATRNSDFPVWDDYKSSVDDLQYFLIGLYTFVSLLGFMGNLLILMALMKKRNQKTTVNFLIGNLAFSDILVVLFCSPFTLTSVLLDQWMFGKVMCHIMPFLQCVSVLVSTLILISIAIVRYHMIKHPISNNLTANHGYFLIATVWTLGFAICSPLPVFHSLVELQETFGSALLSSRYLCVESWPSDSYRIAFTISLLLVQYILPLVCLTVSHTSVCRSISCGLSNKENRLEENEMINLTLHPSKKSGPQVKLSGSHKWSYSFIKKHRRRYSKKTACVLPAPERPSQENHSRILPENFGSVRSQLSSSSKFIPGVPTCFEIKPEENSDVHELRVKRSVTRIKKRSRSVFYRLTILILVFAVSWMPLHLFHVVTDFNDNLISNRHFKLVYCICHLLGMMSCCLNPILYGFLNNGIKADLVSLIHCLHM


Legend:
human NPY2 receptor [1] = target: T1, human NPY2 receptor; assay: cell-based or functional assay
human NPY1 receptor = target: T2, human NPY1 receptor; assay: cell-based or functional assay
human NPY4 receptor = human NPY4 receptor (human, UniProt P50391 1-375); assay: cell-based or functional assay
human NPY4 receptor, sequence (P50391 whole entry): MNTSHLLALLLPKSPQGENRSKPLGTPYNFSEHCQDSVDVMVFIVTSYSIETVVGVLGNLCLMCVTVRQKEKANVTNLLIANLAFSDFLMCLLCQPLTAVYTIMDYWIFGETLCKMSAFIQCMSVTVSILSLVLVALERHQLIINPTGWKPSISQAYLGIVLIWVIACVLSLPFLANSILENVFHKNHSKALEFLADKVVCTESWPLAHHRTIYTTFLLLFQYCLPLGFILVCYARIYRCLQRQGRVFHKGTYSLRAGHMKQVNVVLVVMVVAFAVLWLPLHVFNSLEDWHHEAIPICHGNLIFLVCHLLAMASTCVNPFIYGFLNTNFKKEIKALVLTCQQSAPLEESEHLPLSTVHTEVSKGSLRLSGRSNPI

human NPY5 receptor = target: T3, human NPY5 receptor; assay: cell-based or functional assay
human NPY2 receptor [2] = target: T1, human NPY2 receptor; assay: RLB: displacement of 125I-PYY(1-36) from hNPY2R membranes
human NPY2 receptor [3] = target: T1, human NPY2 receptor; assay: RLB, apparent Ki of filtrate after incubation at pH 8.1-8.2 (assumed 10 mg/ml)
Protocol: (§1) The filtration RLB assay was carried out in 96-well plates in a final volume of 100 μl per well. Freeze-dried test peptides were dissolved in 100% dimethyl sulfoxide (DMSO) to stock solutions of 1 mM and serial dilutions were performed in assay buffer (50 mM HEPES, 5 mM MgCl₂, 1 mM CaCl₂), pH 7.4) containing 0.2% ovalbumin. […] Next, 80 μL membranes (HTS066M, ChemiSCREEN™ Human Neuropeptide Y2 Receptor Membrane Preparation, CHEMICON) were added to each well to give a final protein concentration of 0.5 μg/well. The plates were sealed and incubated at room temperature for 2 hours in a plate shaker set at 400 rpm. The incubation was stopped by vacuum filtration onto 0.5% polyethylene amine (PEI) presoaked GF/C filters using a 96-well FilterMate™ harvester (Perkin Elmer) followed by four washes with 300 μl/well ice-cold wash buffer (50 mM HEPES, 500 mM NaCl, pH7.4). Filter plates were then dried for 60 min at room temperature and the bottom of the plates was sealed with backing tape UniFilter-96. Finally, 50 μl/well scintillation counter cocktail (Microscint20, Packard) was added and the radioactivity was counted in the Packard TopCount NXT scintillation counter. IC₅₀ values (the half maximal inhibitory concentration of the agonist) were calculated by nonlinear regression analysis of sigmoidal dose-response curves.
The peptide was (partially) dissolved by shaking the filter unit horizontally at approx. 400 rpm for 2 hours at room temperature. The sample was filtered to remove any insoluble particles.

human NPY2 receptor [4] = target: T1, human NPY2 receptor; assay: RLB, apparent Ki of filtrate after incubation at pH 7.1-7.2 (assumed 10 mg/ml)
Protocol: as §1, with “curves. […]” for “curves.”

human NPY2 receptor [5] = target: T1, human NPY2 receptor; assay: ratio of apparent Ki, pH 6 filtrate vs pH 7 filtrate
Protocol: as §1, with “curves. […]” for “curves.”

human NPY2 receptor [6] = target: T1, human NPY2 receptor; assay: ratio of apparent Ki, pH 8 filtrate vs pH 7 filtrate
Protocol: as §1, with “curves. […]” for “curves.”

human NPY2 receptor [7] = target: T1, human NPY2 receptor; assay: RLB (125I-PYY(1-36) displacement, hNPY2R membranes), peptide from DMSO stock
Protocol: as §1, with “curves. […]” for “curves.”

human NPY2 receptor [8] = target: T1, human NPY2 receptor; assay: RLB, apparent Ki of filtrate after incubation at pH 6.1-6.2 (assumed 10 mg/ml)
Protocol: as §1, with “curves. […]” for “curves.”

Row | Binder | EC50, HTRF cAMP Gi assay (human NPY2 receptor [1]) | EC50, HTRF cAMP Gi assay (human NPY1 receptor) | EC50, HTRF cAMP Gi assay (human NPY4 receptor) | EC50, HTRF cAMP Gi assay (human NPY5 receptor) | Ki (human NPY2 receptor [2]) | Ki (human NPY2 receptor [3]) | Ki (human NPY2 receptor [4]) | RLB ratio (RLB6/RLB7) (human NPY2 receptor [5]) | RLB ratio (RLB8/RLB7) (human NPY2 receptor [6]) | Ki (human NPY2 receptor [7]) | Ki (human NPY2 receptor [8])
1 | Isovaleryl-APEK([Ahx-γGlu-C18 diacid])PEADATPEEIQRYYVSLRHYYNWLTRQRY-NH2 [Compound 7] | 0.143 nM | > 5000 nM | > 5000 nM | > 5000 nM | 1.04 nM | 3.1 nM |  |  |  |  | 
2 | Isovaleryl-APAK([Ahx-γGlu-C18 diacid])PEEDASPEEIQRYYISLRHYYNWLTRQRY-NH2 (SMILES CC[C@H](C)[C@H](NC(=O)[C@H](Cc1ccc(O)cc1)NC(=O)[C@H](Cc1ccc(O)cc1)NC(=O)[C@H](CCCNC(=N)N)NC(=O)[C@H](CCC(N)=O)NC(=O)[C@@H](NC(=O)[C@H](CCC(=O)O)NC(=O)[C@H](CCC(=O)O)NC(=O)[C@@H]1CCCN1C(=O)[C@H](CO)NC(=O)[C@H](C)NC(=O)[C@H](CC(=O)O)NC(=O)[C@H](CCC(=O)O)NC(=O)[C@H](CCC(=O)O)NC(=O)[C@@H]1CCCN1C(=O)[C@H](CCCCNC(=O)CCCCCNC(=O)CC[C@H](NC(=O)CCCCCCCCCCCCCCCCC(=O)O)C(=O)O)NC(=O)[C@H](C)NC(=O)[C@@H]1CCCN1C(=O)[C@H](C)NC(=O)CC(C)C)[C@@H](C)CC)C(=O)N[C@@H](CO)C(=O)N[C@@H](CC(C)C)C(=O)N[C@@H](CCCNC(=N)N)C(=O)N[C@@H](Cc1c[nH]cn1)C(=O)N[C@@H](Cc1ccc(O)cc1)C(=O)N[C@@H](Cc1ccc(O)cc1)C(=O)N[C@@H](CC(N)=O)C(=O)N[C@@H](Cc1c[nH]c2ccccc12)C(=O)N[C@@H](CC(C)C)C(=O)N[C@H](C(=O)N[C@@H](CCCNC(=N)N)C(=O)N[C@@H](CCC(N)=O)C(=O)N[C@@H](CCCNC(=N)N)C(=O)N[C@@H](Cc1ccc(O)cc1)C(N)=O)[C@@H](C)O) [Compound 195] | 0.197 nM | > 5000 nM | > 5000 nM | > 5000 nM | 0.78 nM |  |  |  |  |  | 
3 | Isovaleryl-APEK([Ahx-γGlu-C18 diacid])PEEDATPEEIQRYYVSLRHYYNWLTRQRY-NH2 (SMILES CC[C@H](C)[C@H](NC(=O)[C@H](CCC(=O)O)NC(=O)[C@H](CCC(=O)O)NC(=O)[C@@H]1CCCN1C(=O)[C@@H](NC(=O)[C@H](C)NC(=O)[C@H](CC(=O)O)NC(=O)[C@H](CCC(=O)O)NC(=O)[C@H](CCC(=O)O)NC(=O)[C@@H]1CCCN1C(=O)[C@H](CCCCNC(=O)CCCCCNC(=O)CC[C@H](NC(=O)CCCCCCCCCCCCCCCCC(=O)O)C(=O)O)NC(=O)[C@H](CCC(=O)O)NC(=O)[C@@H]1CCCN1C(=O)[C@H](C)NC(=O)CC(C)C)[C@@H](C)O)C(=O)N[C@@H](CCC(N)=O)C(=O)N[C@@H](CCCNC(=N)N)C(=O)N[C@@H](Cc1ccc(O)cc1)C(=O)N[C@@H](Cc1ccc(O)cc1)C(=O)N[C@H](C(=O)N[C@@H](CO)C(=O)N[C@@H](CC(C)C)C(=O)N[C@@H](CCCNC(=N)N)C(=O)N[C@@H](Cc1c[nH]cn1)C(=O)N[C@@H](Cc1ccc(O)cc1)C(=O)N[C@@H](Cc1ccc(O)cc1)C(=O)N[C@@H](CC(N)=O)C(=O)N[C@@H](Cc1c[nH]c2ccccc12)C(=O)N[C@@H](CC(C)C)C(=O)N[C@H](C(=O)N[C@@H](CCCNC(=N)N)C(=O)N[C@@H](CCC(N)=O)C(=O)N[C@@H](CCCNC(=N)N)C(=O)N[C@@H](Cc1ccc(O)cc1)C(N)=O)[C@@H](C)O)C(C)C) [Compound 176] | 0.168 nM | > 5000 nM | > 5000 nM | > 5000 nM | 1.48 nM | 5.7 nM | 4 nM | 1 | 1.4 | 8.7 nM | 3.9 nM
4 | Isovaleryl-APAK([Ahx-γGlu-C18 diacid])PEEDASPEEIQRYYVSLRHYYNWLTRQRY-NH2 [Compound 63] | 0.109 nM | > 5000 nM | > 5000 nM | > 5000 nM | 0.93 nM |  |  |  |  | 6.6 nM | 

The remaining lines, values ahead:

Row | EC50, HTRF cAMP Gi assay (human NPY2 receptor [1]) | EC50, HTRF cAMP Gi assay (human NPY1 receptor) | EC50, HTRF cAMP Gi assay (human NPY4 receptor) | EC50, HTRF cAMP Gi assay (human NPY5 receptor) | Ki (human NPY2 receptor [2]) | Ki (human NPY2 receptor [3]) | Ki (human NPY2 receptor [4]) | RLB ratio (RLB6/RLB7) (human NPY2 receptor [5]) | RLB ratio (RLB8/RLB7) (human NPY2 receptor [6]) | Ki (human NPY2 receptor [7]) | Ki (human NPY2 receptor [8]) | Binder
5 | 0.122 nM | > 5000 nM | > 5000 nM | > 5000 nM | 0.67 nM | 3.8 nM | 7.3 nM |  |  |  |  | Isovaleryl-APEK([Ahx-γGlu-C18 diacid])PEADASPEEIQRYYIALRHYYNWLTRQRY-NH2 [Compound 40]
6 | 0.13 nM | > 5000 nM | > 5000 nM | > 5000 nM | 0.67 nM | 4.9 nM |  |  |  |  |  | Isovaleryl-APEK([Ahx-γGlu-C18 diacid])PEADASPEELQRYYVALRHYYNWLTRQRY-NH2 [Compound 163]

Reference: US20260015399A1 (Boehringer Ingelheim, published 2026)
